From the Immune Epitope Database (IEDB)

Legend:
Assay in all cases: IEDB peptide-MHC binding, purified MHC/competitive/radioactivity; ≥ and ≤ were set here for values at or beyond the usual limits of such assays
Conditions in all cases: source organism: hepatitis C virus genotype 1a
HLA-B*40:01 = biological target: HLA-B*40:01
HLA-B*40:02 = biological target: HLA-B*40:02
HLA-A*02:01 = biological target: HLA-A*02:01
HLA-B*07:02 = biological target: HLA-B*07:02
HLA-B*08:01 = biological target: HLA-B*08:01

Row | Sequence | IC50 (HLA-A*02:01) [nM] | IC50 (HLA-B*07:02) [nM] | also measured
1 | LEDRDRSEL | – | – | IC50 (HLA-B*40:01): 426 nM; IC50 (HLA-B*40:02): 4270 nM
2 | VLSDFKTWL | 305 | – | –
3 | HPALVFDIT | – | 160 | –
4 | FLVGQLFTF | 67 | – | –
5 | RPALVFDIT | – | 43 | –
6 | RLWHYPCTV | 12 | – | –
7 | GVDPNIRTGV | 351 | – | –
8 | SLLAPGAKQNV | 513 | – | –
9 | IPFYGKAI | – | 497 | –
10 | HSKKKCDEL | – | – | IC50 (HLA-B*08:01): 764 nM
